Columns and labels:
Assay in all cases: cell-based or functional assay
[1] = target: HIV-1 Env of isolate 93UG077 (subtype A) (HIV-1)
[2] = target: HIV-1 Env of isolate 92WR020 (subtype A) (HIV-1)
[3] = target: HIV-1 Env of isolate 92UG031 (subtype A) (HIV-1)
[4] = target: HIV-1 Env of isolate MGRM-D-013 (subtype D) (HIV-1)
[5] = target: HIV-1 Env of isolate MGRM-D-001 (subtype D) (HIV-1)
[6] = target: HIV-1 Env of isolate MGRM-D-022 (subtype D) (HIV-1)
[7] = target: HIV-1 Env of isolate 92TH021 (subtype AE) (HIV-1)
[8] = target: HIV-1 Env of isolate MGRM-AE-005 (subtype AE) (HIV-1)
[9] = target: HIV-1 Env of isolate MGRM-D-018 (subtype D) (HIV-1)
[10] = target: HIV-1 Env of isolate MGRM-D-004 (subtype D) (HIV-1)
[11] = target: HIV-1 Env of isolate MGRM-AE-003 (subtype AE) (HIV-1)
[12] = target: HIV-1 Env of isolate MGRM-F1-013 (subtype F) (HIV-1)
[13] = target: HIV-1 Env of isolate MGRM-F1-015 (subtype F) (HIV-1)
[14] = target: HIV-1 Env of isolate MGRM-D-005 (subtype D) (HIV-1)
[15] = target: HIV-1 Env of isolate MGRM-D-008 (subtype D) (HIV-1)
[16] = target: HIV-1 Env of isolate 93WR029 (subtype A) (HIV-1)
[17] = target: HIV-1 Env of isolate MGRM-F1-016 (subtype F) (HIV-1)
[18] = target: HIV-1 Env of isolate MGRM-F1-006 (subtype F) (HIV-1)
[19] = target: HIV-1 Env of isolate MGRM-AE-002 (subtype AE) (HIV-1)
[20] = target: HIV-1 Env of isolate 92WR024 (subtype A) (HIV-1)
[21] = target: HIV-1 Env of isolate MGRM-D-020 (subtype D) (HIV-1)
[22] = target: HIV-1 Env of isolate 92WR021 (subtype A) (HIV-1)
[23] = target: HIV-1 Env of isolate MGRM-AE-007 (subtype AE) (HIV-1)
[24] = target: HIV-1 Env of isolate MGRM-D-019 (subtype D) (HIV-1)
[25] = target: HIV-1 Env of isolate MGRM-F1-017 (subtype F) (HIV-1)
[26] = target: HIV-1 Env of isolate MGRM-F1-004 (subtype F) (HIV-1)
[27] = target: HIV-1 Env of isolate 94 KE 105 (subtype AC) (HIV-1)
[28] = target: HIV-1 Env of isolate MGRM-F1-018 (subtype F) (HIV-1)
[29] = target: HIV-1 Env of isolate MGRM-D-014 (subtype D) (HIV-1)
[30] = target: HIV-1 Env of isolate MGRM-AE-006 (subtype AE) (HIV-1)
[31] = target: HIV-1 Env of isolate MGRM-AE-008 (subtype AE) (HIV-1)
[32] = target: HIV-1 Env of isolate 94UG103 (subtype A) (HIV-1)
[33] = target: HIV-1 Env of isolate MGRM-D-003 (subtype D) (HIV-1)
[34] = target: HIV-1 Env of isolate MGRM-D-002 (subtype D) (HIV-1)
[35] = target: HIV-1 Env of isolate MGRM-F1-008 (subtype F) (HIV-1)
[36] = target: HIV-1 Env of isolate 92UG037 (subtype A) (HIV-1)
[37] = target: HIV-1 Env of isolate MGRM-F1-023 (subtype F) (HIV-1)
[38] = target: HIV-1 Env of isolate MGRM-F1-021 (subtype F) (HIV-1)
[39] = target: HIV-1 Env of isolate MGRM-D-029 (subtype D) (HIV-1)
[40] = target: HIV-1 Env of isolate MGRM-F1-012 (subtype F) (HIV-1)
[41] = target: HIV-1 Env of isolate MGRM-D-012 (subtype D) (HIV-1)
[42] = target: HIV-1 Env of isolate CMU02 (subtype AE) (HIV-1)
[43] = target: HIV-1 Env of isolate MGRM-F1-020 (subtype F) (HIV-1)
[44] = target: HIV-1 Env of isolate VLGCA1 (subtype A) (HIV-1)
[45] = target: HIV-1 Env of isolate MGRM-D-026 (subtype D) (HIV-1)
[46] = target: HIV-1 Env of isolate MGRM-F1-014 (subtype F) (HIV-1)
[47] = target: HIV-1 Env of isolate MGRM-D-011 (subtype D) (HIV-1)
[48] = target: HIV-1 Env of isolate MGRM-F1-010 (subtype F) (HIV-1)
[49] = target: HIV-1 Env of isolate MGRM-D-024 (subtype D) (HIV-1)
[50] = target: HIV-1 Env of isolate MGRM-D-028 (subtype D) (HIV-1)
[51] = target: HIV-1 Env of isolate 92UG114 (subtype D) (HIV-1)
[52] = target: HIV-1 Env of isolate MGRM-F1-022 (subtype F) (HIV-1)
[53] = target: HIV-1 Env of isolate MGRM-AE-001 (subtype AE) (HIV-1)
[54] = target: HIV-1 Env of isolate MGRM-D-016 (subtype D) (HIV-1)
[55] = target: HIV-1 Env of isolate MGRM-AE-004 (subtype AE) (HIV-1)
[56] = target: HIV-1 Env of isolate MGRM-D-021 (subtype D) (HIV-1)
[57] = target: HIV-1 Env of isolate 92WR026 (subtype A) (HIV-1)
[58] = target: HIV-1 Env of isolate 92WR009 (subtype A) (HIV-1)

Chain of PGT-141 (4964_G22; 4993_K13) (antibody) (VH): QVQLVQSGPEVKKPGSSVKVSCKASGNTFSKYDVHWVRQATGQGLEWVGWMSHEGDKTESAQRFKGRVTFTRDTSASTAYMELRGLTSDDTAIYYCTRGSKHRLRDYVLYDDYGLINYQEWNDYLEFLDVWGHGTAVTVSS
Chain of PGT-141 (4964_G22; 4993_K13) (antibody) (VL): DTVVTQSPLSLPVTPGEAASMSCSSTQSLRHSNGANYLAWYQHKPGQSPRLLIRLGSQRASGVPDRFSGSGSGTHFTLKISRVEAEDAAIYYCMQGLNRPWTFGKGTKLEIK

PGT-141 (4964_G22; 4993_K13) (antibody)
IC50 (pseudovirus neutralization) [1]: > 50 µg/mL | IC50 (pseudovirus neutralization) [2]: > 50 µg/mL | IC50 (pseudovirus neutralization) [3]: 0.093 µg/mL | IC50 (pseudovirus neutralization) [4]: 0.179 µg/mL | IC50 (pseudovirus neutralization) [5]: > 50 µg/mL | IC50 (pseudovirus neutralization) [6]: > 50 µg/mL | IC50 (pseudovirus neutralization) [7]: 0.001 µg/mL | IC50 (pseudovirus neutralization) [8]: > 50 µg/mL | IC50 (pseudovirus neutralization) [9]: > 50 µg/mL | IC50 (pseudovirus neutralization) [10]: > 50 µg/mL | IC50 (pseudovirus neutralization) [11]: > 50 µg/mL | IC50 (pseudovirus neutralization) [12]: 0.043 µg/mL | IC50 (pseudovirus neutralization) [13]: > 50 µg/mL | IC50 (pseudovirus neutralization) [14]: 5.15 µg/mL | IC50 (pseudovirus neutralization) [15]: 0.371 µg/mL | IC50 (pseudovirus neutralization) [16]: 0.019 µg/mL | IC50 (pseudovirus neutralization) [17]: > 50 µg/mL | IC50 (pseudovirus neutralization) [18]: 8.99 µg/mL | IC50 (pseudovirus neutralization) [19]: > 50 µg/mL | IC50 (pseudovirus neutralization) [20]: 0.175 µg/mL | IC50 (pseudovirus neutralization) [21]: > 50 µg/mL | IC50 (pseudovirus neutralization) [22]: > 50 µg/mL | IC50 (pseudovirus neutralization) [23]: 33.1 µg/mL | IC50 (pseudovirus neutralization) [24]: 1.66 µg/mL | IC50 (pseudovirus neutralization) [25]: 30.8 µg/mL | IC50 (pseudovirus neutralization) [26]: 0.021 µg/mL | IC50 (pseudovirus neutralization) [27]: 0.204 µg/mL | IC50 (pseudovirus neutralization) [28]: 0.785 µg/mL | IC50 (pseudovirus neutralization) [29]: 0.01 µg/mL | IC50 (pseudovirus neutralization) [30]: > 50 µg/mL | IC50 (pseudovirus neutralization) [31]: 0.101 µg/mL | IC50 (pseudovirus neutralization) [32]: > 50 µg/mL | IC50 (pseudovirus neutralization) [33]: > 50 µg/mL | IC50 (pseudovirus neutralization) [34]: > 50 µg/mL | IC50 (pseudovirus neutralization) [35]: 0.193 µg/mL | IC50 (pseudovirus neutralization) [36]: 1.28 µg/mL | IC50 (pseudovirus neutralization) [37]: 0.307 µg/mL | IC50 (pseudovirus neutralization) [38]: > 50 µg/mL | IC50 (pseudovirus neutralization) [39]: 0.057 µg/mL | IC50 (pseudovirus neutralization) [40]: > 50 µg/mL | IC50 (pseudovirus neutralization) [41]: > 50 µg/mL | IC50 (pseudovirus neutralization) [42]: > 50 µg/mL | IC50 (pseudovirus neutralization) [43]: 1.15 µg/mL | IC50 (pseudovirus neutralization) [44]: 2.07 µg/mL | IC50 (pseudovirus neutralization) [45]: 32.5 µg/mL | IC50 (pseudovirus neutralization) [46]: 0.001 µg/mL | IC50 (pseudovirus neutralization) [47]: > 50 µg/mL | IC50 (pseudovirus neutralization) [48]: > 50 µg/mL | IC50 (pseudovirus neutralization) [49]: > 50 µg/mL | IC50 (pseudovirus neutralization) [50]: > 50 µg/mL | IC50 (pseudovirus neutralization) [51]: > 50 µg/mL | IC50 (pseudovirus neutralization) [52]: 0.114 µg/mL | IC50 (pseudovirus neutralization) [53]: > 50 µg/mL | IC50 (pseudovirus neutralization) [54]: > 50 µg/mL | IC50 (pseudovirus neutralization) [55]: 0.001 µg/mL | IC50 (pseudovirus neutralization) [56]: > 50 µg/mL | IC50 (pseudovirus neutralization) [57]: 1.78 µg/mL | IC50 (pseudovirus neutralization) [58]: 0.022 µg/mL
